Fewer inactive variants are shown than the library holds.
B1: TPR 5TU (parent)
chain: GGAUCUUCUCGAUCUAACAAAAAAGACAAAUCUGCCACAAAGCUUGAGAGCAUCUUCGGAUGCAGAGGCGGCAGCCUUCGGUGGCGCGAUAGCGCCAACGUUCUCAACUAUGACACGCAAAACGCGUGCUCCGUUGAAUGGAGUUUAUCAUG

Variants of: B1
Test: polymerase ribozyme fitness, log enrichment relative to wild type (log ratio); higher = more active; in vitro selection for triplet polymerase activity
Outline: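 After PCR construction and transcription, each subunit's mutant library from a heterodimeric triplet polymerase ribozyme was annealed with a biotinylated primer, the partner subunit and triplets. Incubation was frozen, at −7 °C, and extended constructs were gel-excised, bound to streptavidin beads and amplified by RT-PCR, in one selection round done in triplicate. Fitness is the logarithm of a genotype's enrichment divided by that of the wild type, from inverse-variance-weighted replicate averages of Illumina-sequenced inputs and outputs. The base of the logarithm is 2, and genotypes needed ≥10 input reads and ≥1 read per output.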

| Variant | polymerase ribozyme fitness (log ratio) |
| --- | --- |
| GGAUCUUCUCGAUCUAACAAAAUAGACAAAUCUGCCACAAAGCUUGAGAGCAUCUUCGGGUGCAGAGGCGGCAGCCUUCGAUUGCGCGAUAGCGCCAACGUUCUCAACUAUGACACGCAAAACGCGUGCUCCGUUGAAUGGAGUUUAUCAUG [A23U A60G G81A G83U] | ≤ -4.2 |
| GGAUCUUCUCGAUCUAACAAAAAAGACAAAUCUGCCACAAAGCUUGAGAGCAUCUUCGGAUGCAGAGGCGGCAGCCUUUGGUGGCGCGCUAGCGCCAACGUUCUCAACUAUGACACGCAAAACGCGUGCUCCGUUGAAUGGAGUUUAUCAUG [C79U A89C] | -3.38 |
| GGAUCUUCUCGAUCUAACAAAAAAGACAAAUCUGCCACAAAGCUUGAGAGCAUCUUCGCAUGCAGAGGCGGCAGCCUUCGGUGGCGCGAUAGCGCGAACGUUCUCAACUAUGACACGGAAAACGCGUGCUCCGUUGAAUGGUGUUUAUCAUG [G59C C96G C118G A142U] | -3.61 |
| GGAUCUUCUGGAUCUAACAAAAAAGACAAAUCUGCCACAAAGCUUGAGAGCGUCUACGGAUGCAGAGGCGGCAGCCUUCGGUGGCGCGAUAGCGCUAACGUUCUCAACUAUGACACGCAAAACGCGUGCUCCGUUGAAUUGAGUUUAUCAUG [C10G A52G U56A C96U G140U] | ≤ -4.2 |
| GGAUCUUCUCGAUCUAACAAAAAAGACAAAUCUGCCACAAAGCUUGAGAGCAUCUUCGGAUGCAGAAGCGGCAGCCUUCGGUGGCACGAUAGCGCCAACGUUCUCAACUAUGACACGCAAAACGCGUGCUCCGUUGAAUGGAGUUUAUCAUG [G67A G86A] | -3.58 |
| GGACCUUCUCGAUCUAACAAAAAAGACAAAUCUGCCACAAAGCUUGAGAGCAUCUGCGGAUGUAGAGGCGGCAGCCUUCGGUGGCGCGAUAGGGCCAACGUUCUCAACUAUGACACGCAAAACGCGUGCUCCGUUGAAUGGAGUUUAUCAUG [U4C U56G C63U C93G] | -3.11 |
| GGAUCUUCUCGAUCUAACAAAACAGACAAAUCUGCCACAAAGUUUGCGAGCAUCUUGGGAUGCAGAGGCGGCAGCCUUCGGUGGCGAGAUAGCGCCAACGUUCUCAACUAUGACACGCAAGACGCGUGCUCCGUUGAAUGGACGUUAUCAUG [A23C C43U A47C C57G C87A A121G G143C U144G] | ≤ -4.2 |
| GGAUCUUCUUGAUCUAACAAAAAAGAGAAAUCUGCCACAAAGCUUGAGAGCAUUUUCGGAUGCAGAGGCGGCAGCCUUCGGUGGCGCGAUAGCGGGAACGUUCUCAACUGUGACACGCAAAACGCGUGCUCCGUUGAAUGGAGUUUAUCAUG [C10U C27G C54U C95G C96G A110G] | ≤ -4.2 |
| GGAUCUUCUCGAUCUAACAAAAAAGACAAAUCUGCUACAAAGCUUGAGAGCAUCUUCGGAUGCAGAGGCGGCAGCCUUCGGUGGCGCGAUUGCGCCAACGUUCUCAACUAUGACACGCAAAACGCGUGCUCCGUUGAAUGGAGUUUAUCAUG [C36U A91U] | ≤ -4.2 |
| GGAUCCUCUCGAUCUAACAAAAAAGACAAAUCUGCCACAAAGCUUGAGAGCAUCUUCGGAUGCAGAGGCAGCAGCGUUCGGUGGCGAAAUAGCGCCAACGUUCUCAACUAUGACAAGCAAAACGCGUGCUCCGUUGAAUGGAGUUUAUCAUG [U6C G70A C76G C87A G88A C116A] | ≤ -4.2 |
| GGAUCUUCUCGAUCUAACAAAAAAGACAAAUCUGCCACAAAGCUUGAGAGUAUCUUCAGAUGCAGAGGCGGCAGCCUUCGGUGGCGCGAUAGCGCCAACGUUCUCAACUAUGACACGCAAAACCCGUGCUCCGUUGAAUGGAGUUUAUCAUG [C51U G58A G124C] | -1.29 |
| GGAUCUUCUCGAUCUAACAAAAAAGACAAAUCUGCCACAAAGCUUGAGAGCAUCUUCGGAUGCAGAGGCGGCAGCCUUCGGUGGCGCGAUAGCGCCAACGUUCUUAACUAUGACACGCAAAACGCGUGCUCCGUUGAAUAGAGUUUAUCAUG [C105U G140A] | -2.92 |
| GGAUCUUCUCGAUCUAACAAAAAAGACAAAUCUGCCACAAAGCUUGAGAGCAUCUUCGGAUGCAGAGGCGGCAGCCUUCGGUAGCGCGAUAGCGCCAACGUUCUCAACUAUGACACGCAAAACCCGUGCUCCGUUGAAUGGAGUUUAUCAUG [G83A G124C] | -2.64 |
| GGAUAUUCUCGAUCUAACAAAAAAGACAAAUCUGCCACAAAGCUUGAGAGCAUCUUCGAAUGCAGAGGCGGCAGCUAUCGGUGACGCGAUAGCGCCAACGUUCUCAACUAUGACACGGAAAACGCGUGCUCGGUUGAAUGGAGUUUAUCAUG [C5A G59A C76U U77A G84A C118G C132G] | ≤ -4.2 |
| GGAUCUUCUCGAUCUAACAAAAAAGACAAAUCUGCCACAAAGCUUGAGAGCAUCUUCGGAUGCAGAGGCGGCAGCUUUCGGUGGCGCGAUAGCGCCAACGUUCUCAACUAUGACACGAAAAACGCGUGCUCCGUUGAAUGGAGUUUAUCAUG [C76U C118A] | -2.21 |
| GGAUCUUCUCGAUCUAACAAAAAAGACAAAUCCGCCACAACGCUUGAGAGCAUCUUCGGAUGCAGAGGCGGCAGCCUUCGGUGGCGCGAUAGCGCCAACGUUCUCAACUAUGACACGCAAAACGCGUGCUCCGUUGAAUGGAGUUUAUCAUG [U33C A41C] | -3.48 |
| GGAUCUUCUCGAUCUAACAAAAAAGACAAUUCUGCCACAAAGCUUGAGGGCAUCUUCGGAUGCAGAGGCGGCAGCCUUCGGUGGCGCGAUAGCGCCAACGUUCUCAACUAUGACACGCAAAACGCGUGCUCCGUUGAAUGGAGUUUAUCAUG [A30U A49G] | ≤ -4.2 |
| GGAUCUUCUCGAUCUAACAAAAAAGACAAAUCUGCCACAAAGCUUGAGAGCAUCUUCGGAUGCAGAGGCGGCUGCCUUCGGUGGCGCGAUAGCGCCAACGUUCUCAACUAUGACACGCAAAGCGCGUGCUCCGUUGAAUGGAGUUUAUCAUG [A73U A122G] | -0.995 |
| GGAUCUUCUCGAUCUAACAAAAAAGACAAAUCUGCCACAAGGCUUGAGAGCAUCUUCGGAUGCAGAGGCGGCAGCCUUCGGUGGCGAGAUAGCGCCAACGUUCUCAACUAUGACACGCAAGAUGCGUGCUCCGUUGAAUAGAGUUCAUGAUG [A41G C87A A121G C123U G140A U146C C149G] | ≤ -4.2 |

From the RNAGym collection of RNA variant scans (doi:10.1073/pnas.2313332121)
